Source: article PMC7101348, “Modulation of BIN2 kinase activity by HY5 controls hypocotyl elongation in the light” (Nature Communications, 2020)
Values belong to the binder of their own block, whether it stands above or below them.

Tests used:
[1] = molecular target: T1, His-BIN2 (full-length BIN2) (Arabidopsis thaliana, UniProt Q39011 1-380); experiment: cell-based or functional assay
T1 sequence (looked up): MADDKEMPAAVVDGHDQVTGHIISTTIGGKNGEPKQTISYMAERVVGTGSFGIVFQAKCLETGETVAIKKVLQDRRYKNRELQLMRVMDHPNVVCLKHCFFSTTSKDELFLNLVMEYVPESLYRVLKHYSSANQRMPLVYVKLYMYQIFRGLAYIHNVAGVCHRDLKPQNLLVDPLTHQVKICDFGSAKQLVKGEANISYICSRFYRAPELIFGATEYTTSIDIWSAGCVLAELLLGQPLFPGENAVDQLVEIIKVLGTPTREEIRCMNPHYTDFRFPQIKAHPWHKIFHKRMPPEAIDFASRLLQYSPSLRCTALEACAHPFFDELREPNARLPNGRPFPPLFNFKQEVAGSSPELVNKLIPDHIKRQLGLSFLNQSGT

[2] = molecular target: T1, His-BIN2 (full-length BIN2); experiment: pull-down; 1 μg GST-HY5 and 1 μg His-BIN2 in 1 ml binding buffer (25 mM Tris-Cl pH 7.5, 100 mM NaCl, 0.1% NP40), 4 °C; GST beads; washed with 25 mM Tris-Cl pH 7.5, 500 mM NaCl; blots with anti-GST and anti-His; details: both partners purified

in vitro kinase assay: BIN2-mediated phosphorylation of BZR1 with recombinant full-length HY5 (HY5-F) added, against the control [1]: ~2 fold
B1: GST-HY5 (full-length HY5, HY5-F) (natural protein, Arabidopsis thaliana, UniProt O24646 1-168, looked up)
chain: MQEQATSSLAASSLPSSSERSSSSAPHLEIKEGIESDEEIRRVPEFGGEAVGKETSGRESGSATGQERTQATVGESQRKRGRTPAEKENKRLKRLLRNRVSAQQARERKKAYLSELENRVKDLENKNSELEERLSTLQNENQMLRHILKNTTGNKRGGGGGSNADASL

binding result [2]: binds
B2: GST-HY5-M (HY5 L137D) (natural protein, Arabidopsis thaliana, UniProt O24646 1-168, looked up)
chain: MQEQATSSLAASSLPSSSERSSSSAPHLEIKEGIESDEEIRRVPEFGGEAVGKETSGRESGSATGQERTQATVGESQRKRGRTPAEKENKRLKRLLRNRVSAQQARERKKAYLSELENRVKDLENKNSELEERLSTDQNENQMLRHILKNTTGNKRGGGGGSNADASL
notes: HY5, Arabidopsis, with Leu137 changed to Asp; Probably full-length HY5; also called mutated HY5; source: recombinant protein, purified

in vitro kinase assay: BIN2-mediated phosphorylation of BZR1 with recombinant C-terminal domain of HY5 (HY5-C) added, against the control [1]: ~2 fold
B3: GST-HY5-C (HY5 aa 78-168) (domain or fragment, Arabidopsis thaliana, UniProt O24646 78-168, looked up)
chain: RKRGRTPAEKENKRLKRLLRNRVSAQQARERKKAYLSELENRVKDLENKNSELEERLSTLQNENQMLRHILKNTTGNKRGGGGGSNADASL
